assay: soluble on expression in E. coli; label from the status in PepcDB or PDB records

Sequence | soluble on expression in E. coli
MSKTVLILGAGVGGLTTADTLRQLLPPEDRIILVDRSFDGTLGLSLLWVLRGWRRPDDVRVRPTAASLPGVEMVTATVAHIDIAAQVVHTDNSVIGYDALVIALGAALNTDAVPGLSDALDADVAGQFYTLDGAAELRAKVEALEHGRIAVAIAGVPFKCPAAPFEAAFLIAAQLGDRYATGTVQIDTFTPDPLPMPVAGPEVGEALVSMLKDHGVGFHPRKALARVDEAARTMHFGDGTSEPFDLLAVVPPHVPSAAARSAGLSESGWIPVDPRTLSTSADNVWAIGDATVLTLPNGKPLPKAAVFAEAQAAVVAHGVARHLGYDVAERHFTGTGACYVETGDHQAAKGDGDFFAPSAPSVTLYPPSREFHEEKVAQELAWLTRWKTLEHHHHHH | not soluble
MSKVNEITRESWILSTFPEWGTWLNEEIEQTVVEPNTFSMWWLGCTGIWLKSAGNTNLSIDFWCGTGKKTQKNRLMNTQHQMMRMGGVEALQPNLRTSIFPLDPFAIKEIDAVLASHDHADHIDVNVAAAVLQNCGEHVKFIGPQACVDLWLGWGVPQERCIVAKVGDVLEIGDVKIRVLDSFDRTALVTLPKGVSSYDKAILDGMDERAVNYLIETSGGSVYHSGDSHYSNYYAKHGNDYQIDVALLSYGENPRGVTDKMTSSDVLRAAESLDCQVVVPFHHDIWANFQNDPREIEVLWNMKKDRLQYQFAPFFWQVGGKYTYPTDKGRMHYQHFRGFQDIFKNEPELPYKAFL | soluble
MSLAATIREVAALAGVAPGTVSNVLTGKKLVAEPLRKAVLDAIAQLDYRPNHLASSLRFGRTKSIGIVVPDMTNPFFSGLVRELELKAAKSGFQILLMSSYEEAAEERERIRALVSRQVDGLIISPSRDSIETSPHSAISGIPTVLVDRAFAVEGFDTVSADNEQATLMGARHLIELGHKRITFLATAPGLANMEERVSGYRKAMQDAGVSDANVVYGGLSIESCRSAIEQELRRAGRPTAVFASAYVATLGAAKAIRALDLAFPQDVSLLGFDDSDWMTVLRPYVSTIEQPLDELGHACWELLQRRMKKMDVPPVHRRIACTLRARESTREGHHHHHH | soluble
MSLADKATIYIIDDDEIFQFITRKSFERLERNDNLFFFLNGEDALSSIKEAISGNKPSPDLIFLDINMPIMDGWDFLAELIKLEGEMKKTPQIYMVSSSIDDKDLIKSKTYNMIKDYIVKPIKDTHIKELLNNLNEGHHHHHH | soluble
MSLADYLTVTHLTKYLKLKFDRDPYLERVYLTGQVSNFRKRPTHQYFSLKDESAVIQATMWAGVYKKLGFDLEEGMKINVIGRVQLYEPSGSYSIVIEKAEPDGIGALALQFEQLKKKLTAEGYFEQKHKQPLPQFVSKIGVITSPSGAVIRDIITTVSRRFPGVEILLFPTKVQGDGAAQEVVANIRRANQREDLDLLIVGRGGGSIEDLWAFNEEIVVQAIFESQLPVISSVGHETDTTLADFVADRRAATPTAAAELATPITKTDLMSWIVERQNRSYQACLRRIKQRQEWVDKLSQSVIFRQPERLYDAYLQKIDRLSMTLMNTMKDRLSSAKENKVQLDHALANSQLQTKIERYQDRVATAKRLLMANMASQYDSQLARFEKAQDALLSLDASRIIARGYAMIEKNQALVASVSQITKGDQLTIKMRDGQLDVEVKDVKNENIEGHHHHHH | not soluble
MSLAEITDRDTALFESGIKLGALYHQFVGSPVNLSTAGSLEAAIRDSISLQPCVQSITVAIDREMVRGRINDFGYCELEGRMLGVEAVIRYGTAVVHVGMRYDAEMDYPMMSVQQIEQIGQIRQIEQDKQTEQIRQIRQTEVGEGHHHHHH | soluble
MSLAEKICITEIDKLSQKLLRIETELNANIPTTLWISDLHGEGDRFKSILRGRFGMLYQTCKEGLPATFTPEKIQYLAKIVRKKNYFADSQQQMDRQDVILCFVQILKYKLTNSTNRNREIFLPEFRETIGRLLAGLPVPDPIFEESIISDRLIFHLSYAIRQVLLDRIQVLGDVFDRGSQPDKIIRILSSPAYKEMVDYVFGNHDILWMGAAAGTPSLVAETLRITCRYDHFRLLNRLRFDTSRLAEFAERTYEIKKATGKFKAKTDRGRAMEKALTVIQFKLEEKLINDFPHYGMEKRLWLERLAEMLKTGATEELNDSDFPTIDLENPSKLSKEESEIINDLIEQFRSNKYLKRLLKFFFEEGSTYHISNNFLNIHALVPSTKEGEFEEFMGHKGKDLLDYIQKVIRRTGQNYLYNREQSADDLALFFYLWCGPKSPFFGKHAMKTFERYFLLDKERHAEHSLYWQKNMQSDAFKEKMQEEFGIQRVIFGHTPVNYMQGNKMASEDGVAINVDGGFAAAYYNRGHALVHTPHQLYGIILPTPDELIKAAVRLEPAPLDIEFIDEFPQPLKIKNTIAGKLLQQERDLIMGKIQSYNSEGHHHHHH | soluble
MSLAGAVALSLFDELDVVFGPAALADALFYRHSPALRFELEGGKTYIAQFLQAVDRARTVLNVAFAGMEAVTAVLGVWGDDPPAQLWATAEAALHELGIKLPAPELSASELPTPETRVLHGEEDTQVLFAFTLSTARLPELLWGSLAADLGIFPQLRGRLWLAAPELGLLACPYDSRGMDMIGPNTARLAQLYHQFGDWLLDHDRARMAEMLSPGSKEGHHHHHH | soluble
MSLAHVCSVILVRRSFDIHHEQQKISLHNESILLLDKNLADDFAFCSLDTRRLDIEELTVCHYLQNIRQLPRNLGLHSKDRLLINQSPPIQLVTAIFDSFNDPRVNSPILSKMLYLSCLSMFSHKKELIPLLFNSISTVSGKVERLISFDIAKRWYLRDIAERMYTSESLIKKKLQDENTCFSKILLASRMSMARRLLELRQIPLHTIAEKCGYSSTSYFINTFRQYYGVTPHQFSQHSPGTEGHHHHHH | soluble
MSLAKEPLIRVLLIEDDPMVQEVNRMFVEKLSGFTIVGTTATGEEGMVKTRELQPDLILLDIFMPKQDGLSFIKQIREQYIDVDIIAVTAANDTKTIKTLLRYGVMDYLVKPFTFERLKAALTQYEEMFRKMQKEAELSQDSLDEMIKQKQAQANMDDLPKGLHAHTLQQVIERLEELDEPKSAEEIGRDVGLARVTVRRYLNYLESVGQVEMDLTYGSIGRPIQTYKLKEGHHHHHH | soluble
MSLAKGGKRMRRTLAGIAAVLGLALGQQQVTLFWSGAITGPTSDAGAPYGAAVEDYCKWANERKLVPGVVFNCVVRDDQYNNANTQRFFEEAVDRFKIPVFLSYATGANLQLKPLIQELRIPTIPASMHIELIDPPNNDYIFLPTTSYSEQVVALLEYIAREKKGAKVALVVHPSPFGRAPVEDARKAARELGLQIVDVQEVGSGNLDNTALLKRFEQAGVEYVVHQNVAGPVANILKDAKRLGLKMRHLGAHYTGGPDLIALAGDAAEGFLWATSFYMAHEDTPGIRLQKEIGRKYGRPENFIESVNYTNGMLVASIAVEAIRRAQERFKRITNETVYQAIVGMNGPNAFKPGFAVSTKQGVEIDFTKSEHTGAEGLRILEAKGGRFVPVTEPFTSALFRKVHYGEGHHHHHH | soluble
MSLAKYKRVVLKLSGEALAGEQGYGIDPEVIQSIASQIKEIVELDVEVAVVVGGGNIWRGMAGSAKGMDRATADYMGMLATVMNSLALQDSLENLDVQSRVQTSIEMRQVAEPYIRRRAIRHLEKKRVVIFAAGTGNPYFSTDTTAALRAAEIEAEVILMAKNKVDGVYNAEPSVDVNAKKYTSISYLDVLKEGLAVMDSTASSLCMDNNIPLIVFSIMEEGNIKKAVLGEEIGTVVRGSNEGHHHHHH | soluble
MSLALDHVGIATEDAAGLAERFGAVFETQIAHSETFDGMYIIFLDMNGTYLELLEPVDDSDGPIATFLAQRDAGIHHIAIMTEDIATALENARAVGIECIDETPRQGAWGHQVAFLHPRSTGGVLCEFVQQEGHHHHHH | soluble
MSLANDDLQQRLDKGMYGTPLVNPEEQHKYMGTFRERCRLSMTVAEMKDAQNQKHLLEELAKHPEVTVLLNGEISSDLQSTYIKLLNQHGANFKIVNNFVENNPDSLGLLLAEKHAVDEPVIDVTEKYPQATETPKEEPTAKKSFWQKLFHSEGHHHHHH | soluble
MSLAPAAVLELPSPTGLHPVGRRTLHLVDRHRPDPWVPAARGRELMVSVSYPARSSGARPAAYMTRSEAQRLLELKGLAGVVPAATVAGTRTHAQADAPPAPGRFPLVLLSPGFSVPRTTLTALAVDVAARGYVVAAVDHAYESVGTEFPGGRVPPCVACDRVGVDVDEATVVRGRAADLSFVIDELTGRRSTGALARLIDPGRIGVAGHSIGGAAALATMAADRRVRAGVNLDGGFFVPDAGHRIGGRPFMMVGAEAVHGPGNTAGDWAATYDRLHGWKRWLTVSGAGHFSFTDIPWLAEQLGLPDPQVPLPGERGWYITRDYVGAFFDLHLRGLPQPLLHGPTSSHPEVGFHRPEGHHHHHH | soluble
MSLAPAEWVALNYVPFAERSLEVVVDLYQKTACHKAVVNEKVLQNIIKTLRVPLSLKYSCPSESTWKLAVSSLLRVLSIGLPVARQHASSGKFDSMWPELANTFEDFLFTKSIPPDNLSIQEFQRNENIDVEVVQLISNEILPYANFIPKEFVGQIMTMLNKGSIHSQSSSFTEAEIDIRLREEFSKMCFETLLQFSFSNKVTTPQEGYISRMALSVLLKRSQDVLHRYIEDERLSGKCPLPRQQVTEIIFVLKAVSTLIDSLKKTQPENVDGNTWAQVIALYPTLVECITCSSSEVCSALKEALVPFKDFMQPPASRVQNGEEGHHHHHH | not soluble
MSLAPLVAMVGGGQLARMTHQAAIALGQNLRVLVTSADDPAAQVTPNVVIGSHTDLAALRRVAAGADVLTFDHEHVPNELLEKLVADGVNVAPSPQALVHAQDKLVMRQRLAAAGVAVPRYAGIKDPDEIDVFAARVDAPIVVKAVRGGYDGRGVRMARDVADARDFARECLADGVAVLVEERVDLRRELSALVARSPFGQGAAWPVVQTVQRDGTCVLVIAPAPALPDDLATAAQRLALQLADELGVVGVLAVELFETTDGALLVNELAMRPHNSGHWTIDGARTSQFEQHLRAVLDYPLGDSDAVVPVTVMANVLGAAQPPAMSVDERLHHLFARMPDARVHLYGKAERPGRKVGHINFLGSDVAQLCERAELAAHWLSHGRWTDGWDPHRASDDAVGVPPACGGRSDEEERREGHHHHHH | soluble
MSLAPSTYYDAKTRPPSARAQRDAVLGPALRQLWKDNYCVYGAHKLWKTARRAGYDVGRDQVARLMRAAGIQGVRRGKRVRTTKPDPVAARHPDLVKRKFTATAPNQLWVTDLTFVPTWAGVAYVCFIVDAHSRMIVGWRVASHMRTSMVLDALEMARWSRGTTLQNLICHSDAGSQFTSIRYGERLAEIGGVPSIGTVGDSFDNALAETVNGYYKAELIYGPARSGPWKTVEDVELATLSWVYWHNTSRLHSYLGDLPPAEFEAAFYDASRSGQPLVEIQEGHHHHHH | soluble
MSLAQKISATPAAGAQMTLAQADGIAFRELSFPEALKRAEVEDKLLFVDCFTTWCGPCKRLSKVVFKDSLVADYFNRHFVNLKMDMEKGEGVELRKKYGVHAYPTLLFINSSGEVVYRLVGAEDAPELLKKVKLGVESGGLSGLKKRYEAGDRDLAFICGYINALSAANREQEAGKVAADFLQGSEQKMLEDEDYFLVFYYYVHDVNSSAFQYAVNHKKEITDKFPRQAASLDRRLLEDWIAGSYAYLKVDESNHCTFDEQGLDAYVAKMKQMNVAEADMIGESLRLSRDGIMKQWDSFVKRGDKILASHTILGDEGHLLQWVNWLNKECADMSLREKAAQWCDKACEELIKKNEEIKKNLPPGAIPAISMVDHKGQLLQVAEKLRKLMQQSEGHHHHHH | soluble

Source: the DeepSol protein solubility set
